Experimental data taken from the supplement of paper PMC9112550, “Optimization of the antimicrobial peptide Bac7 by deep mutational scanning” (BMC Biology, 2022).

Test system: Escherichia coli TOP10
Experiment: shrunken log2 fold change of peptide-encoding DNA abundance (4.5 h post-induction vs induction); higher = less antimicrobial activity (less host growth inhibition)
Details: time post-induction: 4.5 h; library: site-saturation at positions 5, 18, 19, 20
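Note: peptides expressed intracellularly from a pBAD plasmid library in pooled LB shake-flask culture, induced with 0.3% L-arabinose, DNA abundance read by NGS, three biological replicates, DESeq2 with apeglm shrinkage.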

| Sequence | shrunken log2 fold change |
| --- | --- |
| RRIRHRPPRLPRPRPRPFQRPRP | 0.0038 |
| RRIRHRPPRLPRPRPRPFRYPRP | -0.737 |
| RRIRHRPPRLPRPRPRPFTFPRP | -0.0857 |
| RRIRHRPPRLPRPRPRPFTHPRP | -0.0608 |
| RRIRHRPPRLPRPRPRPFWTPRP | -0.766 |
| RRIRHRPPRLPRPRPRPFYSPRP | -0.00674 |
| RRIRHRPPRLPRPRPRPGAHPRP | -0.457 |
| RRIRHRPPRLPRPRPRPGAIPRP | -0.15 |
| RRIRHRPPRLPRPRPRPGDNPRP | -0.0143 |
| RRIRHRPPRLPRPRPRPGDPPRP | 0.219 |
| RRIRHRPPRLPRPRPRPGDSPRP | -0.53 |
| RRIRHRPPRLPRPRPRPGDYPRP | -0.212 |
| RRIRHRPPRLPRPRPRPGEKPRP | -0.102 |
| RRIRHRPPRLPRPRPRPGEPPRP | -0.0215 |
| RRIRHRPPRLPRPRPRPGFVPRP | 0.607 |
| RRIRHRPPRLPRPRPRPGGKPRP | -0.0185 |
| RRIRHRPPRLPRPRPRPGKAPRP | -0.0115 |
| RRIRHRPPRLPRPRPRPGKHPRP | -0.362 |
| RRIRHRPPRLPRPRPRPGLFPRP | -0.0985 |
| RRIRHRPPRLPRPRPRPGMGPRP | 0.0516 |
| RRIRHRPPRLPRPRPRPGNQPRP | 0.0401 |
| RRIRHRPPRLPRPRPRPGPIPRP | -0.133 |
| RRIRHRPPRLPRPRPRPGPLPRP | 0.0825 |
| RRIRHRPPRLPRPRPRPGQDPRP | 0.0217 |
| RRIRHRPPRLPRPRPRPGRGPRP | 0.529 |

| Sequence | shrunken log2 fold change |
| --- | --- |
| RRIRHRPPRLPRPRPRPGSWPRP | 0.112 |
| RRIRHRPPRLPRPRPRPGTFPRP | -0.132 |
| RRIRHRPPRLPRPRPRPGTGPRP | -0.0184 |
| RRIRHRPPRLPRPRPRPGTTPRP | -0.221 |
| RRIRHRPPRLPRPRPRPGYSPRP | 0.0976 |
| RRIRHRPPRLPRPRPRPHCAPRP | -0.109 |
| RRIRHRPPRLPRPRPRPHCLPRP | -0.777 |
| RRIRHRPPRLPRPRPRPHCMPRP | -0.0295 |
| RRIRHRPPRLPRPRPRPHCYPRP | 0.0262 |
| RRIRHRPPRLPRPRPRPHEEPRP | -0.206 |
| RRIRHRPPRLPRPRPRPHEIPRP | -0.0135 |
| RRIRHRPPRLPRPRPRPHGAPRP | -0.183 |
| RRIRHRPPRLPRPRPRPHHQPRP | -0.364 |
| RRIRHRPPRLPRPRPRPHIAPRP | -0.0808 |
| RRIRHRPPRLPRPRPRPHIVPRP | -0.104 |
| RRIRHRPPRLPRPRPRPHLAPRP | -0.0341 |
| RRIRHRPPRLPRPRPRPHLEPRP | -0.0228 |
| RRIRHRPPRLPRPRPRPHMFPRP | -0.358 |
| RRIRHRPPRLPRPRPRPHMTPRP | -0.0109 |
| RRIRHRPPRLPRPRPRPHNYPRP | -0.296 |
| RRIRHRPPRLPRPRPRPHPPPRP | 0.261 |
| RRIRHRPPRLPRPRPRPHRDPRP | -0.263 |
| RRIRHRPPRLPRPRPRPHRHPRP | -0.2 |
| RRIRHRPPRLPRPRPRPHRPPRP | -0.133 |
| RRIRHRPPRLPRPRPRPHTPPRP | -0.147 |

| Sequence | shrunken log2 fold change |
| --- | --- |
| RRIRHRPPRLPRPRPRPHTSPRP | -0.0988 |
| RRIRHRPPRLPRPRPRPHVWPRP | 0.205 |
| RRIRHRPPRLPRPRPRPHWLPRP | -0.123 |
| RRIRHRPPRLPRPRPRPHWSPRP | -0.205 |
| RRIRHRPPRLPRPRPRPHWYPRP | -0.347 |
| RRIRHRPPRLPRPRPRPHYKPRP | -0.973 |
| RRIRHRPPRLPRPRPRPHYPPRP | -0.208 |
| RRIRHRPPRLPRPRPRPICDPRP | -0.174 |
| RRIRHRPPRLPRPRPRPICSPRP | 0.0153 |
| RRIRHRPPRLPRPRPRPIFRPRP | -0.173 |
| RRIRHRPPRLPRPRPRPIFWPRP | -0.0136 |
| RRIRHRPPRLPRPRPRPIGRPRP | -0.00982 |
| RRIRHRPPRLPRPRPRPIGSPRP | -0.0183 |
| RRIRHRPPRLPRPRPRPIHPPRP | -0.154 |
| RRIRHRPPRLPRPRPRPIIEPRP | 0.0811 |
| RRIRHRPPRLPRPRPRPIIHPRP | 0.142 |
| RRIRHRPPRLPRPRPRPIKDPRP | -0.299 |
| RRIRHRPPRLPRPRPRPIMEPRP | -0.545 |
| RRIRHRPPRLPRPRPRPINHPRP | -0.97 |
| RRIRHRPPRLPRPRPRPINQPRP | -0.243 |
| RRIRHRPPRLPRPRPRPINRPRP | 0.0787 |
| RRIRHRPPRLPRPRPRPINWPRP | -0.35 |
| RRIRHRPPRLPRPRPRPIPHPRP | -0.664 |
| RRIRHRPPRLPRPRPRPIRYPRP | 0.0301 |
| RRIRHRPPRLPRPRPRPISEPRP | -0.0415 |
